Measurements: the supplement of paper PMC9170038

Test system: MS2 coat protein
Test: apparent KD of MS2 coat protein; designed switch direction (-1 OFF switch, 1 ON switch): 1; higher = weaker reporter binding
Summary of the method: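 The reported apparent KD is a per-design median over clusters, from curve fits of normalised cluster fluorescence. Protein titrations used SNAP-549-labelled MS2 coat protein, doubled from 0.7 or 1.5 nM to 3 µM, in Tris-HCl pH 7.5 buffer with KCl, MgCl2, BSA, DTT, tRNA and Tween-20, with no input, 200 uM small-molecule ligand, or an oligonucleotide input. The RNA switches were transcribed on Illumina chips by stalled E. coli RNA polymerase.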

[1] = Eterna round: R95, input ligand: FMN 200 uM
[2] = Eterna round: R95, input ligand: microRNA oligo, concentration not stated
[3] = Eterna round: R95, input ligand: none
[4] = input ligand: microRNA oligo, concentration not stated

Row | Sequence | apparent KD of MS2 coat protein [1] [nM] | apparent KD of MS2 coat protein [2] [nM] | apparent KD of MS2 coat protein [3] [nM] | apparent KD of MS2 coat protein (input ligand: FMN 200 uM) [nM] | apparent KD of MS2 coat protein [4] [nM] | apparent KD of MS2 coat protein (input ligand: none) [nM]
1 | AGUCCAGCCUGAGCUGGACAAAAGCAUGUACAUGAGGAUCACCCAUGUCAUGUACAAGCUUUUUGCUCGUCUUAAAU [Mat - hsa-mir-208a - Mod of JL - D22] (puzzle: Sensor for hsa-mir-208a) | 585 | 16.4 | 584 |  |  | 
2 | AGUCCAGCCUGAGCUGGACAAAAGCAUGUACAUGAGGAUCACCCAUGUCAUGUACAAGCUUUUUGCUCGUCUUGAAA [Zipper 46 - 9] (puzzle: Sensor for hsa-mir-208a) | 737 | 16.8 | 807 |  |  | 
3 | AGUCCAGCCUGAGCUGGACAAAAGCAUGUACAUGAGGAUCACCCAUGUCAUGUACAAGUUUUUUGCUCGUCUUAAUA [Zipper 49 - 12] (puzzle: Sensor for hsa-mir-208a) | 46.9 | 11.1 | 53.1 |  |  | 
4 | AGUCCAGCCUGAGCUGGACAAAAGCAUGUACAUGAGGAUCACCCAUGUUAUGUACAAGCUUUUUGCUCGUCUUAAAA [Zipper 46 - 15] (puzzle: Sensor for hsa-mir-208a) | 165 | 13 | 153 |  |  | 
5 | AGUCCAGCCUGAGCUGGACAAAAGCAUGUACAUGAGGAUCACCCAUGUUCAUGUACAAGCUUUUUGCUCGUUUUAAA [Zipper 52 - 8] (puzzle: Sensor for hsa-mir-208a) | 523 | 13.5 | 546 |  |  | 
6 | AGUCCAGCGAAAGCUGGACAAAAGCAUGUACAUGAGGAUCACCCAUGUUCAUGUACAAGUUUUUUGCUCGUUUUAAA [JL mod - D95 - 18] (puzzle: Sensor for hsa-mir-208a) | 37.8 | 10.3 | 45.8 |  |  | 
7 | AGUCCAGCGAAAGCUGGACAAAGGCAUGUACAUGAGGAUCACCCAUGUUCAUGUACAAGCUUUUUGCUCGUCUUAAA [JL mod - D95 - 3] (puzzle: Sensor for hsa-mir-208a) | 147 | 14 | 194 |  |  | 
8 | AUAAAACAUGAGGAUCACCCAUGUCAACAAAAUCGAGGAUAUGGACAGACUUCGGUCUGUCCAGAAGGCGAAUAAU [salish99_ss1_r3_100] (Eterna round: R96, puzzle: Same State 1) |  |  |  | 15.1 | 12.7 | 17.4
9 | AUAAAACAUGAGGAUCACCCAUGUCAACAAAAUCGAGGAUAUGGACAGACUUCGGUCUGUCCAGAAGGCGAAUAAU [salish99_ss1_r3_100] (puzzle: Same State 1) |  | 13.8 |  |  |  | 
10 | AUAAAACAUGAGGAUCACCCAUGUGGCGCUGACACAGGAUAUCAUGCGGAACUGGACGUAUGAGAAGGGUGAUGCG [Diateedza] (puzzle: Same State 1) | 53 | 216 | 419 |  |  | 
11 | AUAAAUAACACAGGAUAUCCGCACGAGUAGUACGGAGAAGGGUGAACGUCGGCUCUCGCCAACAUGAGGAUCACCCAUGUAAAA [Usesesana] (Eterna round: R96, puzzle: Same State NG 1) |  |  |  | 1160 | 432 | 734
12 | AUAAGAAACACAGGAUAUACCGCACUUAACACGGUAGAAGGGUGGGACAUGAGGAUCACCCAUGUGGUCCGGGCGCCGGACCGC [Geenusrior] (Eterna round: R96, puzzle: Same State NG 1) |  |  |  | 711 | 27.8 | 329
13 | AUAAGACACAUGAGGAUCACCCAUGUGGCCGUAGUCGGCUCACAGGAUAUCAAGCUACUAGUGCUUGAGAAGGGUGAGACAAGC [Raar Mod] (Eterna round: R96, puzzle: Same State NG 3) |  |  |  | 57.3 | 190 | 323
14 | AUAAGUUCGAUGCUCGUCUCUCCGUACAAACAUGAGGAUCACCCAUGUGAUCGGGAAGUAGCCCGGUCAGUAUGGCC [Ordierti] (puzzle: Sensor for hsa-mir-208a) | 35.1 | 24.4 | 38.5 |  |  | 
15 | AUAAGUUCGAUGCUCGUCUCUCCGUACAAACAUGAGGAUCACCCAUGUGAUUGAGCAGUAGCCCAAUCAGUAUGGCC [Tileus] (puzzle: Sensor for hsa-mir-208a) | 45.1 | 23.9 | 47.9 |  |  | 
16 | AUAAGUUCGAUGCUCGUCUCUCCGUACAAACAUGAGGAUCACCCAUGUGAUUGGGCAAUAGCCCAAUCAGUAUGACC [Gemaa] (puzzle: Sensor for hsa-mir-208a) | 38.1 | 26 | 41.5 |  |  | 

Row | Sequence | apparent KD of MS2 coat protein [1] [nM] | apparent KD of MS2 coat protein [2] [nM] | apparent KD of MS2 coat protein [3] [nM] | apparent KD of MS2 coat protein (input ligand: FMN 200 uM) [nM] | apparent KD of MS2 coat protein [4] [nM] | apparent KD of MS2 coat protein (input ligand: none) [nM]
17 | AUAGUUGCCGAAGGAUAUGAUGAGGAUCACCCAUCAGAAGGUUGGCUAUUGGGUGGACAUGAGGAUCACCCAUGUCCUUUGGUA (Eterna round: R96, puzzle: Same State NG 1) |  |  |  | 95.1 | 119 | 147
18 | AUAUGAGGAGCAGGAUAUGCGGAGAAGAAAGAAGCAGAAGGGCUCAUGGGACGACAUGAGGAUCACCCAUGUGCUCCGCGAUGA [AK SSNG1-V2-4] (Eterna round: R96, puzzle: Same State NG 1) |  |  |  | 69.9 | 29.5 | 328
19 | AUAUUCUUCCGCGACACCCACAUGAGGAUCACCCAUGUUGAACAGGAUAUGUAGUUCAUCUGAACACAGAAGGGUUAAAGGAAG [Eternabot solution 28] (Eterna round: R96, puzzle: Same State NG 3) |  |  |  | 16.5 | 16.5 | 20
20 | AUCUCUGUGCCGCAGGAUAUACCAACGGCUACAUGAGGAUCACCCAUGUCAUACCGUCGAAAAUGGUAGAAGGGUGUGCACGAGC [Leesmala] (puzzle: Same State 2) | 16.4 | 45.5 | 61.3 |  |  | 
21 | AUGCCAAAAGGAGGAUAUGGAGCCUUAUUGGCUCCAGAAGGCUUGACAUGAGGAUCACCCAUGUGGCAGUGGUCUAAUGACCAC [Eli NG1ss - 43] (Eterna round: R96, puzzle: Same State NG 1) |  |  |  |  | 13.7 | 
22 | AUGCCAAAGCGAGGAUAUGGAGCCUUAUUGGCUCCAGAAGGUGUGACAUGAGGAUCACCCAUGUGGCAGUGGUCUAAUGACCAC [Eli NG1ss - 41] (Eterna round: R96, puzzle: Same State NG 1) |  |  |  | 63.3 | 64.6 | 86.7
23 | AUGGUGCAGGUACAGGAUAUGUUGCUCGUAACAUGAGGAUCACCCAUGUACCUAUGAGAUUAAAUGCAGAAGGGUGCACACCACG [Quorra] (Eterna round: R96, puzzle: Same State 2) |  |  |  | 62.8 | 406 | 1260
24 | AUUAAACAUGAGGAUCACCCAUGUCAACAAAGUCGAGGAUAUGGGCAAAUAAAAUAAGUACCAGAAGGCGAAUAAU [salish99_ss1_r3_066] (Eterna round: R96, puzzle: Same State 1) |  |  |  | 21.4 | 66.1 | 103
25 | AUUAAACAUGAGGAUCACCCAUGUCAACAAAGUCGAGGAUAUGGGCAAAUAAAAUAAGUACCAGAAGGCGAAUAAU [salish99_ss1_r3_066] (puzzle: Same State 1) |  | 149 |  |  |  | 
26 | AUUAAACAUGAGGAUCACCCAUGUCAACAAAGUCGAGGAUAUGGGCAAAUAAAAUUAGAACCAGAAGGCGAAUAAU [salish99_ss1_r3_063] (puzzle: Same State 1) | 29.2 | 167 | 229 |  |  | 
27 | AUUAAACAUGAGGAUCACCCAUGUCAACAAAGUCGAGGAUAUGGGCAAAUUAUAUAAUAACCAGAAGGCGAAUAAU [salish99_ss1_r3_083] (puzzle: Same State 1) | 15.2 | 18.9 | 14.2 |  |  | 
28 | AUUAAACAUGAGGAUCACCCAUGUCUACAAAGUCGAGGAUAUGGGCAAAUAAAAUAAGAACCAGAAGGCGAAUAAU [salish99_ss1_r3_072] (puzzle: Same State 1) | 60.3 | 613 | 533 |  |  | 
29 | AUUAAUUAAUUAAUACAUGAGGAUCACCCAUGUAAUAAGAUCAAGGAUAUCAGCUCGUUUAGAGCUGAGAAGGUGAUCACAUGU [SSNG3/17-B3] (Eterna round: R96, puzzle: Same State NG 3) |  |  |  |  | 246 | 
30 | AUUACUAAUGCAGGAUAUGAUUAACAUGAGGAUCACCCAUGUGGUGUUGUGAGUAAGGAGAGUGAUCAGAAGGGCAUUUUUUUU [JMF's solution 29] (Eterna round: R96, puzzle: Same State NG 2) |  |  |  | 518 | 362 | 325
31 | AUUAGUUGCGGGCAGGAUAUGUAUUAAAAUACAUGAGGAUCACCCAUGUGCGGGUAUAACACCCGACAGAAGGGCCAAUCGCGAC [Mat - Same State 2 - Mod of UCT - D93] (puzzle: Same State 2) | 25.4 | 250 | 409 |  |  | 
32 | AUUAUUAAUGCAGGAUAUGAUUAACAUGAGGAUCACCCAUGUGGUGUUGUGAGUAAGGAGAGUGAUCAGAAGGGCAUUUUUAUU [JMF's solution 13] (Eterna round: R96, puzzle: Same State NG 2) |  |  |  | 1020 | 353 | 808
